Experimental findings from article PMC3137072 are described below.

The target of the experiment is microtubules (polymerized tubulin) (UniProt Q6B856).
microtubules (polymerized tubulin), sequence (Q6B856 whole entry, looked up): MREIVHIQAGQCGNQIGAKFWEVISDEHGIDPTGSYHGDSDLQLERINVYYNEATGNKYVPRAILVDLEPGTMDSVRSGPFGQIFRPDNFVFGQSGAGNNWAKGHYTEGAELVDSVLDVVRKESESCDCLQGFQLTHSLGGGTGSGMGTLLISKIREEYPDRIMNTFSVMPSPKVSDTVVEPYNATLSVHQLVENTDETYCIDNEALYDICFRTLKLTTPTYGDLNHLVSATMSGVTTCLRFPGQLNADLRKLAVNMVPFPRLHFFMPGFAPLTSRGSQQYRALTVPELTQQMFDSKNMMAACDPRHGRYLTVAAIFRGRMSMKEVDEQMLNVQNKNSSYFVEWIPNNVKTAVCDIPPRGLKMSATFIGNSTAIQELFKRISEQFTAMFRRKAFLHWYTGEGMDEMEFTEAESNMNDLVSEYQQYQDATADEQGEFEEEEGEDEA

B1: GAS2-like 3 (G2L3), full length, GFP-tagged (natural protein)
chain: MQPAIQVWFGEDLPLSPRSPLTPRHGPGLANVCQYDEWIAVRHEATLLPMQEDLSIWLSGLLGIKVKAEKLLEELDNGVLLCQLIDVLQNMVKTCNSEESGNFPMRKVPCKKDAASGSFFARDNTANFLHWCRDIGVDETYLFESEGLVLHKDPRQVYLCLLEIGRIVSRYGVEPPVLVKLEKEIELEETLLNTSGPEDSISIPKSCCRHEELHEAVKHIAEDPPCSCSHRFSIEYLSEGRYRLGDKILFIRMLHGKHVMVRVGGGWDTLQGFLLKYDPCRILQFATLEQKILAFQKGVSNESVPDSPARTPQPPEMNPLSAVNMFQKQNSKPSVPVSIPKSKEKQGRPPGALVPASSLKGGNLGSMSVRSKLPNSPAASSHPKLKSSKGITKKPQAPSNNASSSLASLNPVGKNTSSPALPRTAPCISESPRKCISSPNTPKAKVIPAQNSADLPESTLLPNKCSGKTQPKYLKHNHISSRDNAVSHLAAHSNSSSKCPKLPKANIPVRPKPSFQSSAKMTKTSSKTIATGLGTQSQPSDGAPQAKPVPAQKLKSALNLNQPVSVSSVSPVKATQKSKDKNIVSATKKQPQNKSAFQKTGPSSLKSPGRTPLSIVSLPQSSTKTQTAPKSAQTVAKSQHSTKGPPRSGKTPASIRKPPSSVKDADSGDKKPTAKKKEDDDHYFVMTGSKKPRK
In the case of B1, the FRAP, t½ of recovery of GFP-tagged full-length G2L3 on MTs in NIH3T3 cells is 14.9 s.
